Here are results for 34 sequences from the supplement of paper PMC7877785.

The data set can be described thus: self-splicing fitness, log relative to wild type (ln ratio); higher = more splicing; Tetrahymena group I intron in knt gene, E. coli kanamycin selection, DiMSum; sequences stand for … in CUCUCU…GGAGGGAAAAGUUAUCAGGCAUGCACCUGGUAGCUAGUCUUUAAACCAAUAGAUUGCAUCGGUUUAAAAGGCAAGACCGUCAAAUUGCGGGAAAGGGGUCAACAGCCGUUCAGUACCAAGUCUCAGGGGAAACUUUGAGAUGGCCUUGCAAAGGGUAUGGUAAUAAGCUGACGGACAUGGUCCUAACCACGCAGCCAAGUCCUAAGUCAACAGAUCUUCUGUUGAUAUGGAUGCAGUUCACAGACUAAAUGUCGGUCGGGGAAGAUGUAUUCUUCUCAUAAGAUAUAGUCGGACCUCUCCUUAAUGGGAGCUAGCGGAUGAAGUGAUGCAACACUGGAGCCGCUGGGAACUAAUUUGUAUGCGAAAGUAUAUUGAUUAGUUUUGGAGUACUCGUGGUCG
In short, it runs like this:
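Library with all eight P1ex-region intron nucleotides randomised, intron inside the knt kanamycin-resistance gene on pET-22b(+), in E. coli BL21(DE3). Cells grew overnight at 37°C or 30°C on LB agar with or without 25 μg/mL kanamycin (plus 100 μg/mL carbenicillin, 50 μM IPTG, 0.2% rhamnose), in six replicate transformations. Pooled colonies were amplicon-sequenced on Illumina HiSeq 2500. DiMSum fitness is the error-weighted combination of wild-type-normalised replicate fold changes, kanamycin versus none.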

± gives the uncertainty stated by the source.

With AGCUAGCAAUAUUACGGUCG, the “self-splicing fitness (ln)” value by setting is: (30 °C) -0.942 ± 0.072; (37 °C) 0.371 ± 0.1.

As to AGCUAGCAAUAUUACGGAGA, the “self-splicing fitness (ln)” value runs as follows: (30 °C) -2.24 ± 0.22; (37 °C) -3.14 ± 0.37. The corresponding values for CAAGAGCAAUAUUACGAUGC are -2.54 ± 0.32 and -2.31 ± 0.39.

For the sequence GAACAGCAAUAUUACGAGUA, the “self-splicing fitness (ln)” value reads like this: (30 °C) -2.87 ± 0.12; (37 °C) -1.98 ± 0.1. Regarding AGGGAGCAAUAUUACGGUAU, the “self-splicing fitness (ln)” value (37 °C) was -0.384 ± 0.39. Regarding AUCGAGCAAUAUUACGAGAC, for the setting “30 °C”, the “self-splicing fitness (ln)” value was -1.99 ± 0.32. On to UGCAAGCAAUAUUACGCAGC, for which the “self-splicing fitness (ln)” value (30 °C) is -3.6 ± 0.23 and the “self-splicing fitness (ln)” value (37 °C) was -2.58 ± 0.23. The corresponding values for CCACAGCAAUAUUACGCUAA are -3.8 ± 0.22 and -1.62 ± 0.15. For GGCCAGCAAUAUUACGCAGC the same measures were -3.08 ± 0.37 and -1.88 ± 0.33. For CGAAAGCAAUAUUACGGAUG, the “self-splicing fitness (ln)” value reads like this: (30 °C) -0.462 ± 0.066; (37 °C) -0.00232 ± 0.091. On to AACCAGCAAUAUUACGUGCU, for which the “self-splicing fitness (ln)” value is -3.52 ± 0.16 (30 °C) and -1.94 ± 0.15 (37 °C). With CGGUAGCAAUAUUACGAUGU, the “self-splicing fitness (ln)” value by setting is: (30 °C) -0.932 ± 0.093; (37 °C) -0.763 ± 0.15.

In the case of ACCCAGCAAUAUUACGCUCC, the “self-splicing fitness (ln)” value was -0.481 ± 0.099 (30 °C) and -0.338 ± 0.14 (37 °C). As for CACCAGCAAUAUUACGGAAG, the “self-splicing fitness (ln)” value is, setting by setting: (30 °C) -0.975 ± 0.049; (37 °C) -0.0423 ± 0.072. Take UAACAGCAAUAUUACGAAGA: the “self-splicing fitness (ln)” value is, setting by setting: (30 °C) -2.48 ± 0.14; (37 °C) -1.33 ± 0.11.

CACGAGCAAUAUUACGUGAC: the “self-splicing fitness (ln)” value (30 °C) is -2.72 ± 0.15 and the “self-splicing fitness (ln)” value (37 °C) is -2.44 ± 0.15. The corresponding values for GGGCAGCAAUAUUACGUAGC are -1.79 ± 0.22 and -0.913 ± 0.28. With GCCGAGCAAUAUUACGACCC, the “self-splicing fitness (ln)” value is -2.25 ± 0.34 (30 °C) and -0.208 ± 0.39 (37 °C). Consider AUGCAGCAAUAUUACGCUUA, for which the “self-splicing fitness (ln)” value by setting is: (30 °C) -1.26 ± 0.1; (37 °C) -0.294 ± 0.094.

On to UCAAAGCAAUAUUACGUGCU, for which the “self-splicing fitness (ln)” value by setting is: (30 °C) -4.45 ± 0.3; (37 °C) -2.93 ± 0.21. On to CAGCAGCAAUAUUACGCCGA, for which the “self-splicing fitness (ln)” value runs as follows: (30 °C) -1.81 ± 0.12; (37 °C) -0.864 ± 0.091. For GUCCAGCAAUAUUACGACAA, the “self-splicing fitness (ln)” value was -1.57 ± 0.14 (30 °C) and -0.902 ± 0.11 (37 °C). As for GUGGAGCAAUAUUACGCGAG, for the setting “37 °C”, the “self-splicing fitness (ln)” value is -1.53 ± 0.38. With ACAAAGCAAUAUUACGACGU, the “self-splicing fitness (ln)” value came to 0.0672 ± 0.047 (30 °C) and 0.266 ± 0.06 (37 °C). As for GCAGAGCAAUAUUACGCGGA, the “self-splicing fitness (ln)” value runs as follows: (30 °C) -3.11 ± 0.34; (37 °C) -2.91 ± 0.35. UUGCAGCAAUAUUACGGCCC: the “self-splicing fitness (ln)” value was -1.83 ± 0.31 (30 °C) and -0.271 ± 0.47 (37 °C).

Regarding CGGUAGCAAUAUUACGGACG, the “self-splicing fitness (ln)” value was -0.708 ± 0.1 (30 °C) and -0.837 ± 0.13 (37 °C). For AUACAGCAAUAUUACGGUCC the same measures were -1.18 ± 0.097 and 0.135 ± 0.11. On to GUUUAGCAAUAUUACGCGCU, for which the “self-splicing fitness (ln)” value was -1.52 ± 0.29 (30 °C) and -0.397 ± 0.44 (37 °C). For CCGAAGCAAUAUUACGCCAU the same measures were -4.11 ± 0.27 and -3.25 ± 0.21.

Take UAGCAGCAAUAUUACGACUU: the “self-splicing fitness (ln)” value is -0.541 ± 0.098 (30 °C) and 0.107 ± 0.11 (37 °C). Take ACGCAGCAAUAUUACGGUCU: the “self-splicing fitness (ln)” value was -0.587 ± 0.049 (30 °C) and 0.0141 ± 0.056 (37 °C). For CUCUAGCAAUAUUACGGCGU the same measures were -3.56 ± 0.27 and -2.83 ± 0.24. Consider GGGUAGCAAUAUUACGACCA, for which the “self-splicing fitness (ln)” value (30 °C) is -0.444 ± 0.23 and the “self-splicing fitness (ln)” value (37 °C) was -0.732 ± 0.42.
